Measurements taken from patent publication US20200332017A1 (SALUBRIS CHENGDU BIOTECH, published 2020).

Legend:
[1] = molecular target: T1, Human CD40-his protein (Acro biosystems, Cat # CD0-H5228) (human, UniProt P25942 21-193); assay: SPR, Biacore; antibody captured, human CD40-his flowed
T1 construct: Bought reagent; not shown: his tag
Text: Briefly, goat anti-mouse IgG (GE healthcare, Cat # BR100838, Mouse Antibody Capture Kit) was covalently linked to a CM5 or a Protein G chip (carboxy methyl dextran coated chip) via primary amines, using a standard amine coupling kit provided by Biacore (GE healthcare, Pittsburgh, Pa., USA). Un-reacted moieties on the biosensor surface were blocked with ethanolamine. […] Then, human CD40-his (Acro biosystems, Cat # CD0-H5228) or cynomolgus monkey CD40-his protein (Acro biosystems, Cat # CD0-052H6) in HBS EP buffer (provided by Biacore) was flowed onto the chip at a flow rate of 30 μL/min. The antigen-antibody association kinetics was followed for 2 minutes and the dissociation kinetics was followed for 10 minutes. The association and dissociation curves were fit to a 1:1 Langmuir binding model using BIA evaluation software.

[2] = molecular target: T2, human CD40-Fc protein (amino acid residue 21-193 of SEQ ID NO: 67 linked to N-terminus of amino acid residue … (human, biotin-labeled in the capture ELISA and in the benchmark blocking ELISA; unlabeled when coated in the ligand blocking ELISA); assay: capture ELISA, biotin human CD40-Fc; mAb at 2000 ng/mL
T2 construct: also called biotin-labeled human CD40-Fc; human CD40-Fc-biotin
Procedure: (§1) Plates were washed 4 times with wash buffer (PBS+0.05% Tween-20, PBST) and then blocked with 200 μl/well blocking buffer (5% w/v non-fatty milk in PBST) for 2 hours at 37° C. […] After a final wash, plates were incubated with 100 μl/well ELISA substrate TMB (Innoreagents, Cat # TMB-S-002). The reaction was stopped in 15 minutes at 25° C. with 50 μl/well 1M H₂SO₄, and the absorbance was read at 450 nm and plotted against antibody concentration. Data were analyzed using Graphpad Prism software and EC₅₀ values were reported.

[3] = molecular target: T2, human CD40-Fc protein (amino acid …); assay: capture ELISA, biotin human CD40-Fc; mAb at 10000 ng/mL
Procedure: as §1

[4] = molecular target: T2, human CD40-Fc protein (amino acid …); assay: capture ELISA, biotin human CD40-Fc; mAb at 80 ng/mL
Procedure: as §1

[5] = molecular target: T2, human CD40-Fc protein (amino acid …); assay: capture ELISA, biotin human CD40-Fc; mAb at 400 ng/mL
Procedure: as §1

[6] = molecular target: T2, human CD40-Fc protein (amino acid …); assay: capture ELISA, biotin human CD40-Fc; mAb at 16 ng/mL
Procedure: as §1

[7] = molecular target: T2, human CD40-Fc protein (amino acid …); assay: capture ELISA, biotin human CD40-Fc; mAb at 0 ng/mL (blank)
Procedure: as §1

[8] = molecular target: T2, human CD40-Fc protein (amino acid …); assay: capture ELISA; antibody captured, biotin-labeled human CD40-Fc in solution
Procedure: as §1

[9] = molecular target: T2, human CD40-Fc protein (amino acid …); assay: capture ELISA, biotin human CD40-Fc; mAb at 3.2 ng/mL
Procedure: as §1

[10] = molecular target: T2, human CD40-Fc protein (amino acid …); assay: capture ELISA, biotin human CD40-Fc; mAb at 0.64 ng/mL
Procedure: as §1

T2 sequence (chain, as listed by the source): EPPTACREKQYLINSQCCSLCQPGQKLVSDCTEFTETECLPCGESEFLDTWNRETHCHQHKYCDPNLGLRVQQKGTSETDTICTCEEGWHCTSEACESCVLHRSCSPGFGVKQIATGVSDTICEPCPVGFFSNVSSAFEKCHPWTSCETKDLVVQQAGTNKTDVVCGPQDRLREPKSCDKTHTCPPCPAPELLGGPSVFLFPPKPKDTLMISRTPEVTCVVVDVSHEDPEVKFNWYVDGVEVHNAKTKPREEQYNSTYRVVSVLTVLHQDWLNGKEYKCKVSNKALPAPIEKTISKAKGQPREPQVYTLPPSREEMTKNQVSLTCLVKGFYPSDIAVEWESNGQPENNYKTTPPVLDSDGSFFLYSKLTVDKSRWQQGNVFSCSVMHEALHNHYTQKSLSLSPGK
T1 sequence (P25942 21-193 limits assumed): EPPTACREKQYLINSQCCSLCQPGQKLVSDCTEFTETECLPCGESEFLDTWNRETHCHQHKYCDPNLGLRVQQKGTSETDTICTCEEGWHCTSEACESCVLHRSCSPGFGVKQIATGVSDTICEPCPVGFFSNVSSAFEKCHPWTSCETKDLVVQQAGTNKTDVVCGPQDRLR

Kd [1]	koff [1]	kon [1]	absorbance at 450 nm [2]	absorbance at 450 nm [3]	absorbance at 450 nm [4]	absorbance at 450 nm [5]	absorbance at 450 nm [6]	absorbance at 450 nm [7]	EC50 [8]	absorbance at 450 nm [9]	absorbance at 450 nm [10]	Binder
11.6 nM	0.00881 s⁻¹	763000 M⁻¹ s⁻¹										humanized antibody huC1C1-V6 (antibody, human IgG1, kappa, V domains shown, Human IgG1/kappa) VH: EVQLVESGGGVVQPGRSLRLSCAASGFTFSNYGMSWVRQAPGKGLEWVASISSGGDDTYYPDNVKGRCTISRDNSKNTLYLQMNSLRAEDTAVYYCTRAGGKAMDYWGQGTLVTVSS VL: EIVLTQSPATLSLSPGERATLSCRASQSIRDNLHWYQQKPGQAPRLLIYYASQSISGIPARFSGSGSGTDFTLTISSLEPEDFAVYYCQQFNSWPLTFGQGTKVEIKR
			1.7 OD450	1.84 OD450	1.25 OD450	1.63 OD450	0.459 OD450	0.025 OD450	0.267 ng/mL	0.103 OD450	0.039 OD450	humanized antibody huC1C1-V4 (antibody, human IgG1, kappa, V domains shown, Human IgG1/kappa) VH: EVQLVESGGGVVQPGRSLRLSCAASGFTFSNYGMSWVRQAPGKGLEWVASISSGGDDTYYPDNVKGRCTISRDNSKNTLYLQMNSLRAEDTAVYYCTRAGGKAMDYWGQGTLVTVSS VL: EIVLTQSPATLSLSPGERATLSCRASQSIRDNLHWYQQKPGQSPRLLIYYASQSISGIPARFSGSGSGTDFTLTISSLEPEDFAVYFCQQFNSWPLTFGQGTKVEIKR
			1.68 OD450	1.77 OD450	1.1 OD450	1.66 OD450	0.34 OD450	0.027 OD450	0.355 ng/mL	0.083 OD450	0.033 OD450	humanized antibody huC1C1-V5 (antibody, human IgG1, kappa, V domains shown, Human IgG1/kappa; also called humanized C1C1-V5) VH: EVQLVESGGGVVQPGRSLRLSCAASGFTFSNYGMSWVRQAPGKGLEWVASISSGGDDTYYPDNVKGRCTISRDNSKNTLYLQMNSLRAEDTAVYYCTRAGGKAMDYWGQGTLVTVSS VL: EIVLTQSPATLSLSPGERATLSCRASQSIRDNLHWYQQKPGQSPRLLINYASQSISGIPARFSGSGSGTDFTLTISSLEPEDFAVYYCQQFNSWPLTFGQGTKVEIKR

Continued, binder first:

Binder	Kd [1]	koff [1]	kon [1]	absorbance at 450 nm [2]	absorbance at 450 nm [3]	absorbance at 450 nm [4]	absorbance at 450 nm [5]	absorbance at 450 nm [6]	absorbance at 450 nm [7]	EC50 [8]	absorbance at 450 nm [9]	absorbance at 450 nm [10]
humanized antibody huC1C1-V1 (antibody, human IgG1, kappa, V domains shown, Human IgG1/kappa; also called humanized C1C1-V1) VH: EVQLVESGGGVVQPGRSLRLSCAASGFTFSNYGMSWVRQAPGKGLEWVASISSGGDDTYYPDNVKGRCTISRDNSKNTLYLQMNSLRAEDTAVYYCTRAGGKAMDYWGQGTLVTVSS VL: EIVLTQSPATLSLSPGERATLSCRASQSIRDNLHWYQQKPGQSPRLLINYASQSISGIPARFSGSGSGTDFTLTISSLEPEDFAVYFCQQFNSWPLTFGQGTKVEIKR				1.78 OD450	1.9 OD450	1.12 OD450	1.73 OD450	0.353 OD450	0.028 OD450	0.382 ng/mL	0.083 OD450	0.035 OD450
humanized antibody huC1C1-V2 (antibody, human IgG1, kappa, V domains shown, Human IgG1/kappa) VH: EVQLVESGGGVVQPGRSLRLSCAASGFTFSNYGMSWVRQAPGKGLEWVASISSGGDDTYYPDNVKGRFTISRDNSKNTLYLQMNSLRAEDTAVYYCTRAGGKAMDYWGQGTLVTVSS VL: EIVLTQSPATLSLSPGERATLSCRASQSIRDNLHWYQQKPGQSPRLLINYASQSISGIPARFSGSGSGTDFTLTISSLEPEDFAVYFCQQFNSWPLTFGQGTKVEIKR				1.72 OD450	1.82 OD450	1.02 OD450	1.62 OD450	0.3 OD450	0.027 OD450	0.428 ng/mL	0.073 OD450	0.029 OD450
humanized antibody huC1C1-V3 (antibody, human IgG1, kappa, V domains shown, Human IgG1/kappa) VH: EVQLVESGGGVVQPGRSLRLSCAASGFTFSNYGMSWVRQAPGKGLEWVASISSGGDDTYYPDNVKGRCTISRDNSKNTLYLQMNSLRAEDTAVYYCTRAGGKAMDYWGQGTLVTVSS VL: EIVLTQSPATLSLSPGERATLSCRASQSIRDNLHWYQQKPGQAPRLLINYASQSISGIPARFSGSGSGTDFTLTISSLEPEDFAVYFCQQFNSWPLTFGQGTKVEIKR				1.71 OD450	1.8 OD450	1.15 OD450	1.72 OD450	0.357 OD450	0.024 OD450	0.336 ng/mL	0.083 OD450	0.032 OD450
